Consider one molecule from publication PMC7596504, “Molecular mechanism of the MORC4 ATPase activation” (Nature Communications, 2020).

In the experiment the test system is NCP207. Put plainly: Fluorescence polarization binding to NCP207. On the procedure: Fluorescence polarization measurements were acquired with a Tecan infinite M1000Pro plate reader by exciting at 470 nm and measuring polarized emission at 519 nm with 5 nm excitation and emission bandwidths. The fluorescence polarization was calculated from the emission polarized parallel and perpendicular to the polarized excitation light. Fluorescence polarization measurements were carried out using increasing concentrations of MORC4 ATPaseCW, ATPase alone, or CW alone with 5 nM 207 bp Fluorescein-labeled NCPs in 15 mM Tris pH 7.5, 75 mM NaCl, 0.00625% Tween 20, and 5 mM dithiothreitol buffer in 30 µL reaction volumes. The samples were loaded into a Corning round bottom black polystyrene plate and incubated at room temperature for 10 min before fluorescence polarization measurements of the samples were taken. The data were then fit to a non-cooperative binding isotherm to determine S1/2 values. Errors represent a S.D. between the S1/2 values based on three runs.
Histone octamers unlabeled or labeled with Cy5 at H2AK119 were prepared as previously described. NCPs were reconstituted by combining octamer with 1.25× excess DNA and performing slow salt dialysis. Free DNA was then separated from fully reconstituted NCPs by sucrose gradient purification. NCPs for fluorescence polarization assays were reconstituted from unlabeled octamer and 207 bp DNA containing the 601 Widom sequence flanked with a 30 bp linker on either side and internally labeled with Fluorescein 27 bp in from the 5′ end. Cy3-Cy5 labeled NCPs for FRET assays were reconstituted with Cy5 labeled octamer plus either 147 bp 601 Widom DNA containing a LexA transcription factor binding site at bases 8–27[34], or 252 bp DNA containing the 601 Widom sequence with a 75 bp linker at the 3′ end, a 30 bp linker at the 5’ end, and a Gal4 transcription factor binding site at bases 8–26 in the 601 Widom sequence. The 147 bp LexA-binding DNA was labeled with Cy3 on the 5′ end, and the 252 bp Gal4-binding DNA was internally labeled with Cy3 34 bp in from the 5′ end.

B1: ATPaseCW: ATPaseCW cassette (aa 29–486) of human MORC4 (Q8TE76) (protein)
chain: GIRLSTMSPRYLQSNSSSHTRPFSAIAELLDNAVDPDVSARTVFIDVEEVKNKSCLTFTDDGCGMTPHKLHRMLSFGFTDKVIKKSQCPIGVFGNGFKSGSMRLGKDALVFTKNGGTLTVGLLSQTYLECVQAQAVIVPIVPFNQQNKKMIITEDSLPSLEAILNYSIFNRENDLLAQFDAIPGKKGTRVLIWNIRRNKNGKSELDFDTDQYDILVSDFDTEEKMTGGVTSELPETEYSLRAFCGILYMKPRMKIFLRQKKVTTQMIAKSLANVEYDTYKPTFTNKQVRITFGFSCKNSNQFGIMMYHNNRLIKSFEKVGCQVKPTRGEGVGVIGVIECNFLKPAYNKQDFEYTKEYRLTINALAQKLNAYWKEKTSQDNFETSTVARPIPKVPDQTWVQCDECLKWRKLPGKIDPSMLPARWFCYYNSHPKYRRCSVPEEQELTDEDLCLSKAKKQE
modifications: left off: GST, end not stated, cleaved
With B1, the “tighter binding to NCP147 or NCP207 than the ATPase domain only” value (ATPaseCW vs ATPase domain, either NCP147 or NCP207) is listed as 2.5–6 fold. Further, the “increase in interaction with NCP207 relative to NCP147” value (NCP207 vs NCP147) is on record as ~ 2 fold. In addition, for the setting “fluorescence polarization, 5 nM NCP207, pH 7.5, 75 mM NaCl, room temperature, 10 min, mean ± S.D. of n = 3”, the S1/2 turned out to be 0.20 ± 0.07 µM.
